# T1: GST-TBX1 T-box (Mus musculus, UniProt P70323 90-303)
# T1 sequence: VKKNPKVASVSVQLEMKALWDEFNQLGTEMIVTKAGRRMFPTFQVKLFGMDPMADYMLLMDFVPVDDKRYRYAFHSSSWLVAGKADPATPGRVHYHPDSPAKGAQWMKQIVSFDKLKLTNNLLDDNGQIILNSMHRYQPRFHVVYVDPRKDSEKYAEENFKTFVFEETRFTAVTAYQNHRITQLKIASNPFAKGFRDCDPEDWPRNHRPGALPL
# B1: Brachyury palindrome probe (Fig S1) (dsDNA)
# DNA 1: CTAGATTTCACACCTAGGTGTGAAATCTAG
# DNA 2: B1 DNA 1
# Target: T1, GST-TBX1 T-box
# Assay: EMSA; 6 h exposure; EMSA, 12.5 ul, GST-TBX1 5-25 ug, HEPES/MgCl2/KCl/DTT/EDTA/glycerol buffer (stock concentrations only, pH not given), 1 ug/ul poly(dI-dC), Ficoll, room temperature, 10 min + 10 min, 5% acrylamide gel
# Settings: protein: recombinant; tags: N-terminal GST (pGEX4t3); chain copies: 2; label: 5'-32P
binder,measurement,value
B1,binding result,binds

# — article PMC4010391, “Mammalian TBX1 Preferentially Binds and Regulates Downstream Targets Via a Tandem T-site Repeat”
